In paper PMC6529005, “FMRP - G-quadruplex mRNA - miR-125a interactions: Implications for miR-125a mediated translation regulation of PSD-95 mRNA”:

Assays:
FMRP S500D [1] = target: T1, FMRP S500D (UniProt Q06787 1-632, S500D); experiment: fluorescence titration (2AP); 150 mM KCl, 1 uM BSA; Fluorescence: 10 mM cacodylic acid pH 6.5, 150 mM KCl, 1 uM BSA, 200 nM RNA; EMSA: 0.5x TBE native gels at 4 C (5 mM KCl for PSD-95 RNAs), incubation at room te
FMRP RGG peptide [2] = target: FMRP RGG peptide (UniProt Q06787); experiment: EMSA; 200 nM RNA, up to 1:2; Fluorescence: 10 mM cacodylic acid pH 6.5, 150 mM KCl, 1 uM BSA, 200 nM RNA; EMSA: 0.5x TBE native gels at 4 C (5 mM KCl for PSD-95 RNAs), incubation at room temperature 15-20 min; pull-down: RIPA (150 mM NaCl, 50 mM Tris pH 8.0), room temperature
FMRP S500D [3] = target: T1, FMRP S500D; experiment: EMSA; 200 nM RNA, complete at 1:2; Kd estimated low nM; Fluorescence: 10 mM cacodylic acid pH 6.5, 150 mM KCl, 1 uM BSA, 200 nM RNA; EMSA: 0.5x TBE native gels at 4 C (5 mM KCl for PSD-95 RNAs), incubation at room te
FMRP S500D [4] = target: T1, FMRP S500D; experiment: EMSA; 200 nM RNA, similar to miR-125a; Fluorescence: 10 mM cacodylic acid pH 6.5, 150 mM KCl, 1 uM BSA, 200 nM RNA; EMSA: 0.5x TBE native gels at 4 C (5 mM KCl for PSD-95 RNAs), incubation at room te
FMRP S500D [5] = target: T1, FMRP S500D; experiment: EMSA; 200 nM RNA, up to 1:2; Fluorescence: 10 mM cacodylic acid pH 6.5, 150 mM KCl, 1 uM BSA, 200 nM RNA; EMSA: 0.5x TBE native gels at 4 C (5 mM KCl for PSD-95 RNAs), incubation at room te
FMRP RGG peptide [6] = target: FMRP RGG peptide (UniProt Q06787); experiment: EMSA; 5 mM KCl; Fluorescence: 10 mM cacodylic acid pH 6.5, 150 mM KCl, 1 uM BSA, 200 nM RNA; EMSA: 0.5x TBE native gels at 4 C (5 mM KCl for PSD-95 RNAs), incubation at room temperature 15-20 min; pull-down: RIPA (150 mM NaCl, 50 mM Tris pH 8.0), room temperature

For GGGAAAAGGGAGGGAUGGG (structured_RNA, A11 replaced by 2-aminopurine) [PSD-95 Q11234 11-2AP], the Kd (FMRP S500D [1]) was 66 nM.

UCCCUGAGACCCUUUAACCUGUGA (ssRNA) [miR-125a]: no binding (FMRP RGG peptide [2]); binds (FMRP S500D [3]).

UCCCUGAGACCGUUUAACCUGUGA (ssRNA) [miR-125a-Mut2]: binds (FMRP S500D [4]).

UGGAGUGUGACAAUGGUGUUUG (ssRNA) [miR-122]: no binding (FMRP S500D [5]).

UCCCUGAGACCCUAACUUGUGA (ssRNA) [miR-125b]: binds (FMRP S500D [4]).

UAGGUAGUUUCAUGUUGUUGGG (ssRNA) [miR-196a-1]: binds (FMRP S500D [5]).

With GGGAGGGAGGGUGGG (structured_RNA, A4 replaced by 2-aminopurine) [PSD-95 Q2 4-2AP] the Kd (FMRP S500D [1]) was 100 nM.

GGGAAAAGGGAGGGAUGGGUCUAGGG (structured_RNA) [PSD-95 Q1]: binds (FMRP RGG peptide [6]; G-quadruplex, multiple conformations).

GGGAGGGAGGGUGGG (structured_RNA) [PSD-95 Q2]: binds (FMRP RGG peptide [6]; G-quadruplex).

B1: PSD-95 Q1-Q2 (structured_RNA)
RNA: GGGAAAAGGGAGGGAUGGGUCUAGGGAGUGGGAAAUGCGGGAGGGAGGGUGGG
B1: binds (FMRP RGG peptide [6]; two G-quadruplexes).
